Results taken from patent US20160324936.

Test system: GST-p21

Substance | in vitro kinase assay: 32P-labeling of GST-p21, SDS-PAGE and autoradiography
GFP-tagged wild-type 34 kDa human PIM-1 (GFP-PIM-wt) | Pim-wt overexpression phosphorylates p21
GFP-tagged kinase dead (K67M) mutant of PIM-1 (GFP-PIM-DN) | this activity was abolished in the Pim-DN construct
